The results in this text go back to doi:10.1101/2025.01.11.632576 (bioRxiv, 2025).

To fix the notation:
B1: HER2 VHH (2Rs15d) Y28K (VHH)
VHH: QVQLQESGGGSVQAGGSLKLTCAASGKIFNSCGMGWYRQSPGRERELVSRISGDGDTWHKESVKGRFTISQDNVKKTLYLQMNSLKPEDTAVYFCAVCYNLETYWGQGTQVTVSS
B2: HER2 VHH (2Rs15d) T58K (VHH)
VHH: QVQLQESGGGSVQAGGSLKLTCAASGYIFNSCGMGWYRQSPGRERELVSRISGDGDKWHKESVKGRFTISQDNVKKTLYLQMNSLKPEDTAVYFCAVCYNLETYWGQGTQVTVSS
B3: HER2 VHH (2Rs15d) G54S (VHH)
VHH: QVQLQESGGGSVQAGGSLKLTCAASGYIFNSCGMGWYRQSPGRERELVSRISSDGDTWHKESVKGRFTISQDNVKKTLYLQMNSLKPEDTAVYFCAVCYNLETYWGQGTQVTVSS
B4: HER2 VHH (2Rs15d) G54K (VHH)
VHH: QVQLQESGGGSVQAGGSLKLTCAASGYIFNSCGMGWYRQSPGRERELVSRISKDGDTWHKESVKGRFTISQDNVKKTLYLQMNSLKPEDTAVYFCAVCYNLETYWGQGTQVTVSS
B5: HER2 VHH (2Rs15d) T58A (VHH)
VHH: QVQLQESGGGSVQAGGSLKLTCAASGYIFNSCGMGWYRQSPGRERELVSRISGDGDAWHKESVKGRFTISQDNVKKTLYLQMNSLKPEDTAVYFCAVCYNLETYWGQGTQVTVSS
B6: HER2 VHH (2Rs15d) Y28S (VHH)
VHH: QVQLQESGGGSVQAGGSLKLTCAASGSIFNSCGMGWYRQSPGRERELVSRISGDGDTWHKESVKGRFTISQDNVKKTLYLQMNSLKPEDTAVYFCAVCYNLETYWGQGTQVTVSS
B7: HER2 VHH (2Rs15d) N101D (VHH)
VHH: QVQLQESGGGSVQAGGSLKLTCAASGYIFNSCGMGWYRQSPGRERELVSRISGDGDTWHKESVKGRFTISQDNVKKTLYLQMNSLKPEDTAVYFCAVCYDLETYWGQGTQVTVSS
B8: HER2 VHH (2Rs15d) T58D (VHH)
VHH: QVQLQESGGGSVQAGGSLKLTCAASGYIFNSCGMGWYRQSPGRERELVSRISGDGDDWHKESVKGRFTISQDNVKKTLYLQMNSLKPEDTAVYFCAVCYNLETYWGQGTQVTVSS
B9: HER2 VHH (2Rs15d) D55K (VHH)
VHH: QVQLQESGGGSVQAGGSLKLTCAASGYIFNSCGMGWYRQSPGRERELVSRISGKGDTWHKESVKGRFTISQDNVKKTLYLQMNSLKPEDTAVYFCAVCYNLETYWGQGTQVTVSS
B10: HER2 VHH (2Rs15d) S32K (VHH)
VHH: QVQLQESGGGSVQAGGSLKLTCAASGYIFNKCGMGWYRQSPGRERELVSRISGDGDTWHKESVKGRFTISQDNVKKTLYLQMNSLKPEDTAVYFCAVCYNLETYWGQGTQVTVSS
B11: HER2 VHH (2Rs15d) Y28A (VHH)
VHH: QVQLQESGGGSVQAGGSLKLTCAASGAIFNSCGMGWYRQSPGRERELVSRISGDGDTWHKESVKGRFTISQDNVKKTLYLQMNSLKPEDTAVYFCAVCYNLETYWGQGTQVTVSS
B12: HER2 VHH (2Rs15d) G54A (VHH)
VHH: QVQLQESGGGSVQAGGSLKLTCAASGYIFNSCGMGWYRQSPGRERELVSRISADGDTWHKESVKGRFTISQDNVKKTLYLQMNSLKPEDTAVYFCAVCYNLETYWGQGTQVTVSS
B13: HER2 VHH (2Rs15d) G54D (VHH)
VHH: QVQLQESGGGSVQAGGSLKLTCAASGYIFNSCGMGWYRQSPGRERELVSRISDDGDTWHKESVKGRFTISQDNVKKTLYLQMNSLKPEDTAVYFCAVCYNLETYWGQGTQVTVSS
B14: HER2 VHH (2Rs15d) T58S (VHH)
VHH: QVQLQESGGGSVQAGGSLKLTCAASGYIFNSCGMGWYRQSPGRERELVSRISGDGDSWHKESVKGRFTISQDNVKKTLYLQMNSLKPEDTAVYFCAVCYNLETYWGQGTQVTVSS
B15: HER2 VHH (2Rs15d) Y28D (VHH)
VHH: QVQLQESGGGSVQAGGSLKLTCAASGDIFNSCGMGWYRQSPGRERELVSRISGDGDTWHKESVKGRFTISQDNVKKTLYLQMNSLKPEDTAVYFCAVCYNLETYWGQGTQVTVSS

The first assay deals with HER2 VHH (2Rs15d) I29D. Briefly: SPR. (In general: Surface plasmon resonance follows binding to a sensor surface in real time, without labels.)
One may read the Kd as the free concentration of one partner at which half of the binding sites on the other are occupied at equilibrium, for simple one-to-one binding. Regarding “recombinant human HER2 (AA 23-653) (from UniProt P04626 23-653) (domain or fragment)”, the Kd was found to be 3.1 nM.

A further assay concerns the target HER2 VHH (2Rs15d) L102A. The assay can be described thus: SPR.
In turn, “recombinant human HER2 (AA 23-653) (from UniProt P04626 23-653) (domain or fragment)” came in with a Kd of 3.1 nM.

In a further assay the target is HER2 VHH (2Rs15d) L102S. The assay can be described thus: SPR.
As to “recombinant human HER2 (AA 23-653) (from UniProt P04626 23-653) (domain or fragment)”, the Kd turned out to be 3.6 nM.

The target in a further assay is recombinant human HER2 (AA 23-653) (Homo sapiens, UniProt P04626). The assay can be described thus: SPR.
As to B1, the binding result is given as “binds”. Take B2: the binding result is “binds”. B3: the binding result is “binds”.

Regarding B4, the binding result is “binds”. Consider B5, for which the binding result is listed as “binds”. Consider B6, for which the binding result is reported as “binds”. B7: the binding result is reported as “binds”. Still for that read-out and setting: with B8 the entry was “binds”. On to B9, for which the binding result was “binds”. On to B10, for which the Kd was 31 nM. B11: the binding result is “binds”. B12: the binding result is given as “binds”. In the case of B13, the binding result is reported as “binds”. Regarding B14, the binding result is reported as “binds”. As to B15, the binding result is given as “binds”.
